B1: S. cerevisiae Abp1 (full length; SH3 domain 535-592 mutated) / Hua2 (parent complex)
chain 1: MALEPIDYTTHSREIDAEYLKIVRGSDPDTTWLIISPNAKKEYEPESTGSSFHDFLQLFDETKVQYGLARVSPPGSDVEKIIIIGWCPDSAPLKTRASFAANFAAVANNLFKGYHVQVTARDEDDLDENELLMKISNAAGARYSIQTSSKQQGKASTPPVKKSFTPSKSPAPVSKKEPVKTPSPAPAAKISSRVNDNNDDDDWNEPELKERDFDQAPLKPNQSSYKPIGKIDLQKVIAEEKAKEDPRLVQKPTAAGSKIDPSSDIANLKNESKLKRDSEFNSFLGTTKPPSMTESSLKNDDDKVIKGFRNEKSPAQLWAERKAKQNSGNAETKAEAPKPEVPEDEPEGEPDVKDLKSKFEGLAASEKEEEEMENKFAPPPKKSEPTIISPKPFSKPQEPVKAEEAEQPKTDYKKIGNPLPGMHIEADNEEEPEENDDDWDDDEDEAAQPPLPSRNVASGAPVQKEEPEQEEIAPSLPSRNSIPAPKQEEAPEQAPEEEIEEEAEEAAPQLPSRSSAAPPPPPRRATPEKKPKENPWATAEYDYDAAEDNELTFVENDKIINIEFVDDDWWLGELEKDGSKGLFPSNYVSLGN
chain 2: MQQTKFGKMYLDHDSVVEYSEDEIVEADRITLGYKKRLSMIENQMRHLLEDFSLDVQQIEPILADLQKYYDAFLQLLQKRNKSLQCKRSTHQPVPSPMNSQTSTNAKVNLSGKLMKFQLNSVQKFDEENILRILQNKIEFEHYFQIDKGKKQKVLLLAVYQCLNGPTRLHKVLNIEGIIHNNSIRTILGKQVSSSKWTVFLYDVKLVLLAHRQDVPNLETSKMIVRYGDLFPCALYFKDHTAY

Variants of: B1
Experiment: DHFR protein-fragment complementation in yeast (Abp1-DHFR F[1,2] x partner-DHFR F[3]), deep mutational scanning, second methotrexate selection vs reference; S. cerevisiae, DHFR-PCA selection in liquid with methotrexate at 30 C, two 72 h selections (the score uses the second); reference = the pre-selection culture

Row | Variant | screen value
1 | chain 1 MALEPIDYTTHSREIDAEYLKIVRGSDPDTTWLIISPNAKKEYEPESTGSSFHDFLQLFDETKVQYGLARVSPPGSDVEKIIIIGWCPDSAPLKTRASFAANFAAVANNLFKGYHVQVTARDEDDLDENELLMKISNAAGARYSIQTSSKQQGKASTPPVKKSFTPSKSPAPVSKKEPVKTPSPAPAAKISSRVNDNNDDDDWNEPELKERDFDQAPLKPNQSSYKPIGKIDLQKVIAEEKAKEDPRLVQKPTAAGSKIDPSSDIANLKNESKLKRDSEFNSFLGTTKPPSMTESSLKNDDDKVIKGFRNEKSPAQLWAERKAKQNSGNAETKAEAPKPEVPEDEPEGEPDVKDLKSKFEGLAASEKEEEEMENKFAPPPKKSEPTIISPKPFSKPQEPVKAEEAEQPKTDYKKIGNPLPGMHIEADNEEEPEENDDDWDDDEDEAAQPPLPSRNVASGAPVQKEEPEQEEIAPSLPSRNSIPAPKQEEAPEQAPEEEIEEEAEEAAPQLPSRSSAAPPPPPRRATPEKKPKENPWCTAEYDYDAAEDNELTFVENDKIINIEFVDDDWWLGELEKDGSKGLFPSNYVSLGN [chain 1 A537C] | 0.422 DMS score: mean over two replicates of log2(f_test/f_ref + 0.5)/ln 2, minus the synonymous-codon median (not a log2 …
2 | chain 1 MALEPIDYTTHSREIDAEYLKIVRGSDPDTTWLIISPNAKKEYEPESTGSSFHDFLQLFDETKVQYGLARVSPPGSDVEKIIIIGWCPDSAPLKTRASFAANFAAVANNLFKGYHVQVTARDEDDLDENELLMKISNAAGARYSIQTSSKQQGKASTPPVKKSFTPSKSPAPVSKKEPVKTPSPAPAAKISSRVNDNNDDDDWNEPELKERDFDQAPLKPNQSSYKPIGKIDLQKVIAEEKAKEDPRLVQKPTAAGSKIDPSSDIANLKNESKLKRDSEFNSFLGTTKPPSMTESSLKNDDDKVIKGFRNEKSPAQLWAERKAKQNSGNAETKAEAPKPEVPEDEPEGEPDVKDLKSKFEGLAASEKEEEEMENKFAPPPKKSEPTIISPKPFSKPQEPVKAEEAEQPKTDYKKIGNPLPGMHIEADNEEEPEENDDDWDDDEDEAAQPPLPSRNVASGAPVQKEEPEQEEIAPSLPSRNSIPAPKQEEAPEQAPEEEIEEEAEEAAPQLPSRSSAAPPPPPRRATPEKKPKENPWATAEYDYDAAEDNELTFVENDKIINIEFVDDDWWLGELYKDGSKGLFPSNYVSLGN [chain 1 E575Y] | -0.704 DMS score: mean over two replicates of log2(f_test/f_ref + 0.5)/ln 2, minus the synonymous-codon median (not a log2 …
3 | chain 1 MALEPIDYTTHSREIDAEYLKIVRGSDPDTTWLIISPNAKKEYEPESTGSSFHDFLQLFDETKVQYGLARVSPPGSDVEKIIIIGWCPDSAPLKTRASFAANFAAVANNLFKGYHVQVTARDEDDLDENELLMKISNAAGARYSIQTSSKQQGKASTPPVKKSFTPSKSPAPVSKKEPVKTPSPAPAAKISSRVNDNNDDDDWNEPELKERDFDQAPLKPNQSSYKPIGKIDLQKVIAEEKAKEDPRLVQKPTAAGSKIDPSSDIANLKNESKLKRDSEFNSFLGTTKPPSMTESSLKNDDDKVIKGFRNEKSPAQLWAERKAKQNSGNAETKAEAPKPEVPEDEPEGEPDVKDLKSKFEGLAASEKEEEEMENKFAPPPKKSEPTIISPKPFSKPQEPVKAEEAEQPKTDYKKIGNPLPGMHIEADNEEEPEENDDDWDDDEDEAAQPPLPSRNVASGAPVQKEEPEQEEIAPSLPSRNSIPAPKQEEAPEQAPEEEIEEEAEEAAPQLPSRSSAAPPPPPRRATPEKKPKENPWATAEYDYDAAEDNELTFVENDKIINIEFVDDDWWLGELEKCGSKGLFPSNYVSLGN [chain 1 D577C] | -0.926 DMS score: mean over two replicates of log2(f_test/f_ref + 0.5)/ln 2, minus the synonymous-codon median (not a log2 …

The next lines start with the values.

Row | screen value | Variant
4 | -0.255 DMS score: mean over two replicates of log2(f_test/f_ref + 0.5)/ln 2, minus the synonymous-codon median (not a log2 … | chain 1 MALEPIDYTTHSREIDAEYLKIVRGSDPDTTWLIISPNAKKEYEPESTGSSFHDFLQLFDETKVQYGLARVSPPGSDVEKIIIIGWCPDSAPLKTRASFAANFAAVANNLFKGYHVQVTARDEDDLDENELLMKISNAAGARYSIQTSSKQQGKASTPPVKKSFTPSKSPAPVSKKEPVKTPSPAPAAKISSRVNDNNDDDDWNEPELKERDFDQAPLKPNQSSYKPIGKIDLQKVIAEEKAKEDPRLVQKPTAAGSKIDPSSDIANLKNESKLKRDSEFNSFLGTTKPPSMTESSLKNDDDKVIKGFRNEKSPAQLWAERKAKQNSGNAETKAEAPKPEVPEDEPEGEPDVKDLKSKFEGLAASEKEEEEMENKFAPPPKKSEPTIISPKPFSKPQEPVKAEEAEQPKTDYKKIGNPLPGMHIEADNEEEPEENDDDWDDDEDEAAQPPLPSRNVASGAPVQKEEPEQEEIAPSLPSRNSIPAPKQEEAPEQAPEEEIEEEAEEAAPQLPSRSSAAPPPPPRRATPEKKPKENPWATAEYDYDAAEDNELGFVENDKIINIEFVDDDWWLGELEKDGSKGLFPSNYVSLGN [chain 1 T552G]
5 | -0.248 DMS score: mean over two replicates of log2(f_test/f_ref + 0.5)/ln 2, minus the synonymous-codon median (not a log2 … | chain 1 MALEPIDYTTHSREIDAEYLKIVRGSDPDTTWLIISPNAKKEYEPESTGSSFHDFLQLFDETKVQYGLARVSPPGSDVEKIIIIGWCPDSAPLKTRASFAANFAAVANNLFKGYHVQVTARDEDDLDENELLMKISNAAGARYSIQTSSKQQGKASTPPVKKSFTPSKSPAPVSKKEPVKTPSPAPAAKISSRVNDNNDDDDWNEPELKERDFDQAPLKPNQSSYKPIGKIDLQKVIAEEKAKEDPRLVQKPTAAGSKIDPSSDIANLKNESKLKRDSEFNSFLGTTKPPSMTESSLKNDDDKVIKGFRNEKSPAQLWAERKAKQNSGNAETKAEAPKPEVPEDEPEGEPDVKDLKSKFEGLAASEKEEEEMENKFAPPPKKSEPTIISPKPFSKPQEPVKAEEAEQPKTDYKKIGNPLPGMHIEADNEEEPEENDDDWDDDEDEAAQPPLPSRNVASGAPVQKEEPEQEEIAPSLPSRNSIPAPKQEEAPEQAPEEEIEEEAEEAAPQLPSRSSAAPPPPPRRATPEKKPKENPWATAEYDYDAAEDNELTFVENDKIINIEFVDDDWWKGELEKDGSKGLFPSNYVSLGN [chain 1 L571K]
